Molecular target: His-tagged SSL3 (S. aureus strain NCTC 8325), with the pRSETB N-terminal tag carrying the Xpress epitope (Staphylococcus aureus strain NCTC 8325, UniProt Q2G0X7 31-356)
Experiment: ELISA, coated extracellular domain of mouse TLR2 (FIG. 5A)

B1: recombinant extracellular domain of mouse TLR2 (receptor)
chain: QESLSCDASGVCDGRSRSFTSIPSGLTAAMKSLDLSFNKITYIGHGDLRACANLQVLILKSSRINTIEGDAFYSLGSLEHLDLSDNHLSSLSSSWFGPLSSLKYLNLMGNPYQTLGVTSLFPNLTNLQTLRIGNVETFSEIRRIDFAGLTSLNELEIKALSLRNYQSQSLKSIRDIHHLTLHLSESAFLLEIFADILSSVRYLELRDTNLARFQFSPLPVDEVSSPMKKLAFRGSVLTDESFNELLKLLRYILELSEVEFDDCTLNGLGDFNPSESDVVSELGKVETVTIRRLHIPQFYLFYDLSTVYSLLEKVKRITVENSKVFLVPCSFSQHLKSLEFLDLSENLMVEEYLKNSACKGAWPSLQTLVLSQNHLRSMQKTGEILLTLKNLTSLDISRNTFHPMPDSCQWPEKMRFLNLSSTGIRVVKTCIPQTLEVLDVSNNNLDSFSLFLPRLQELYISRNKLKTLPDASLFPVLLVMKIRENAVSTFSKDQLGSFPKLETLEAGDNHFVCSCELLSFTMETPALAQILVDWPDSYLCDSPPRLHGHRLQDARPSVLECHQ
notes: extracellular domain; also called mTLR2
binding result: binds
